Ends that are not written are not given here.
Biological target: T1, antibody G1 Fab fragment
T1 construct: Fab expressed in E. coli; purified on Ni-NTA, tag not described
Assay: Biacore competition: 10 µM peptide with 50 nM G1 Fab over human α-CGRP chip
Text: Y axis represents percentage of binding blocked by the presence of the competing peptide compared with the binding in the absence of the competing peptide.
All these peptides are amidated at the C-terminus.

T1 sequence (VH, as listed by the source, chain 1 of 2): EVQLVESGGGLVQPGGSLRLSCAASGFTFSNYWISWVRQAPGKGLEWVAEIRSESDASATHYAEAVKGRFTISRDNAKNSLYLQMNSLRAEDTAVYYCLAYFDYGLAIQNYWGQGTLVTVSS
T1 sequence (VL, as listed by the source, chain 2 of 2): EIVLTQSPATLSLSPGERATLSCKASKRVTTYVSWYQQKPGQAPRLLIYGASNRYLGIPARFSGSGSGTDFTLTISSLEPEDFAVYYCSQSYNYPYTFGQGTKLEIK

percentage of binding blocked [%]	Binder
100	NFVPTNVGSKAF-NH2 [human α-CGRP 26-37]
100	VTHRLAGLLSRSGGVVKNNFVPTNVGSKAF-NH2 [human α-CGRP 8-37]
100	ACDTATCVTHRLAGLLSRSGGVVKNNFVPTNVGSKAF-NH2 (cysteine pairing not given here, also called full length human α-CGRP) [human α-CGRP 1-37 (WT)]
100	SCNTATCVTHRLAGLLSRSGGVVKDNFVPTNVGSKAF-NH2 (cysteine pairing not given here, also called rat β (1-37)) [rat β-CGRP (1-37)]
100	ACNTATCVTHRLAGLLSRSGGMVKSNFVPTNVGSKAF-NH2 (cysteine pairing not given here, also called human β (1-37); 1-37 of β-CGRP (WT)) [human β-CGRP (1-37)]
~40	ACDTATCVTHRLAGLLSRSGGVVKNNFVPTNVGSKA-OH (ends and bridges not checked, not C-terminally amidated; also called 1-36 (not amidated at the C-terminus)) [human α-CGRP 1-36-COOH]
